Assay results taken from patent publication US20250340608A1 (PROTAGONIST THERAPEUTICS, published 2025).
Numbered stars: 1 amine (or outer) side, 2 acyl side, 3 side chain; on linkers, the order of the positions; unused ones are H or OH. Square brackets hold non-standard residues; d marks the D form. Primed or numbered codes have the meaning given here. Ends that are not written are not given here. * marks the point of attachment. Ida = iminodiacetic acid, O=C(CN(CC(=O)[*:3])[*:1])[*:2]; PEG8′ = PEG8 conjugated to the Lys side chain; Palmitoyl = CCCCCCCCCCCCCCCC(=O)*; β3hP = O=C(O)C[C@@H]1CCCN1; Isovaleryl = CC(C)CC(=O)*; PEG11′ = not defined here; Isobutyryl = CC(C)C(=O)*; Octanoyl = CCCCCCCC(=O)*

Biological target: T1, human ferroportin (SLC40A1) fused in frame with GFP, stably expressed in HEK293 cells (human, UniProt Q9NP59 1-571)
T1 sequence (looked up): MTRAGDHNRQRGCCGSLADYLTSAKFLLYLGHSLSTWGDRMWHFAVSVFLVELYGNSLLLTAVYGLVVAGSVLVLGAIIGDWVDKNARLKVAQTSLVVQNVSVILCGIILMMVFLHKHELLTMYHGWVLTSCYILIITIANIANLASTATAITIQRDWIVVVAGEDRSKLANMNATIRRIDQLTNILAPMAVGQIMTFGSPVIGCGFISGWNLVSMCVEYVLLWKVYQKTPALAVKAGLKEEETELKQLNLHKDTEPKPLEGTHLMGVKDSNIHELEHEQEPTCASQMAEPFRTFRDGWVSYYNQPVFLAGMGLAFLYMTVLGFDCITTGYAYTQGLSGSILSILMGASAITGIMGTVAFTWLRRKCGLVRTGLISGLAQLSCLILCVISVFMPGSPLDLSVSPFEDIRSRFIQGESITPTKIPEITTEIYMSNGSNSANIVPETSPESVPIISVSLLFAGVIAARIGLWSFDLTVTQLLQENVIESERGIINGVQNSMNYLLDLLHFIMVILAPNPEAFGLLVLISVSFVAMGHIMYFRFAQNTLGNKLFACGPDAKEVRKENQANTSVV
Test: cell-based or functional assay

Binder | Potency EC50 (nM) | Potency EC50 [nM]
H-DTHF[β3hP]CIIFGPRSRGWVCK-NH2 (not fully specified (bridges); printed as Hy-DTHF[bh-Pro]-CIIFGPRSRGWVCK-NH2; cysteine pairing not given here) [Compound 79] | > 1000 | –
H-DTHFPCIIFGPRSRGWRCK-NH2 (cysteine pairing not given here) [Compound 80] | > 1000 | –
H-DTHFPCIRFGPRSRGWVCK-NH2 (cysteine pairing not given here) [Compound 81] | > 1000 | –
H-DTHFPCIRFGPRSRGWRCK-NH2 (cysteine pairing not given here) [Compound 82] | > 1000 | –
H-DTHFPCIIFGPRSRGWVCK-NH2 (cysteine pairing not given here) [Compound 83] | > 1000 | –
H-DTHFPCIIFGPRSRGVCK-NH2 (not fully specified (bridges); printed as Hy-DTHFPCIIFGPRSRGVCK-NH2; cysteine pairing not given here) [Compound 84] | > 1000 | –
H-DTHFPCIYFGPRSKGWVCK-NH2 (not fully specified (bridges); printed as Hy-DTHFPCIYFGPRSKGWVCK-NH2; cysteine pairing not given here) [Compound 85] | – | 705
H-DTHFPCIIFGPRSKGWVCK-NH2 (not fully specified (bridges); printed as Hy-DTHFPCIIFGPRSKGWVCK-NH2; cysteine pairing not given here) [Compound 86] | > 1000 | –
H-DTHFPCIIFGPRARGWVCK-NH2 (not fully specified (bridges); printed as Hy-DTHFPCIIFGPRARGWVCK-NH2; cysteine pairing not given here) [Compound 87] | > 1000 | –
Octanoyl-DTHFPCIIFGPRSRGWVCK-NH2 (not fully specified (bridges); cysteine pairing not given here) [Compound 88] | > 1000 | –
{Palmitoyl-PEG11′}-DTHFPCIIFGPRSRGWVCK-NH2 (not fully specified (bridges); printed as Palm-PEG11-DTHFPCIIFGPRSRGWVCK-NH2; cysteine pairing not given here) [Compound 89] | > 1000 | –
H-DTHFPCISFGPRSKGWVCK-NH2 (not fully specified (bridges); printed as Hy-DTHFPCISFGPRSKGWVCK-NH2; cysteine pairing not given here) [Compound 101] | > 1000 | –
H-DTHFPCIKFGPRSKGWVCK-NH2 (not fully specified (bridges); printed as Hy-DTHFPCIKFGPRSKGWVCK-NH2; cysteine pairing not given here) [Compound 102] | > 1000 | –
H-EDTHFPCIIFGPRSKGWVCK-NH2 (not fully specified (bridges); printed as Hy-EDTHFPCIIFGPRSKGWVCK-NH2; cysteine pairing not given here) [Compound 103] | > 1000 | –
Isovaleryl-DTHFPCIIFEPRSKGWVCK-NH2 (not fully specified (bridges); cysteine pairing not given here) [Compound 105] | – | 10
Isovaleryl-DTHFSCIIFGPRSKGWVCK-NH2 (not fully specified (bridges); cysteine pairing not given here) [Compound 107] | – | 50
{Octanoic acid-PEG11′}-DTHFPCIIFGPRSRGWVCK-NH2 (not fully specified (bridges); cysteine pairing not given here) [Compound 108] | > 1000 | –
{Isobutyryl-PEG11′}-DTHFPCIIFGPRSRGWVCK-NH2 (not fully specified (bridges); cysteine pairing not given here) [Compound 109] | > 1000 | –
[Ida]THFPCIIFGPRSRGWVCK-NH2 (not fully specified (bridges); printed as [Ida]-THFPCIIFGPRSRGWVCK-NH2; cysteine pairing not given here) [Compound 110] | – | > 300

Binder | Potency EC50 (nM) | Potency EC50 [nM]
Isovaleryl-DTHFPCIKFGPKSKGWVCK-NH2 (not fully specified (bridges); cysteine pairing not given here) [Compound 112] | – | 15
Isovaleryl-DTHFPCIIFGPRSKGWCK-NH2 (not fully specified (bridges); cysteine pairing not given here) [Compound 113] | – | 15
Isovaleryl-DTHFPCIIFGPRSKGVC-NH2 (not fully specified (bridges); cysteine pairing not given here) [Compound 114] | – | 18
H-THFPCIIFGPRSKGWVCM-NH2 (cysteine pairing not given here) [Compound 132] | > 1000 | –
H-HFPCIIFGPRSKGWVCM-NH2 (cysteine pairing not given here) [Compound 133] | > 1000 | –
Isovaleryl-HFPCIIFGPRSKGWVCM-NH2 (cysteine pairing not given here) [Compound 134] | > 1000 | –
H-DTHFPCISFGPRSKGWVCM-NH2 (cysteine pairing not given here) [Compound 135] | – | 545
H-DTHFPCIKFGPRSKGWVCM-NH2 (cysteine pairing not given here) [Compound 136] | – | 669
H-EDTHFPCIIFGPRSKGWVCM-NH2 (cysteine pairing not given here) [Compound 137] | – | 873
Isovaleryl-DTHFKCIEFGPRSKGWVCK-NH2 (cysteine pairing not given here) [Compound 140] | > 1000 | –
Isovaleryl-DTHFPCIIFEPRSKGWVCK-NH2 (cysteine pairing not given here) [Compound 142] | – | 9
Isovaleryl-DTHFPCIIFEPRSKGWVCKKKK-NH2 (cysteine pairing not given here) [Compound 144] | – | 15
Isovaleryl-DTHFPCIIFGPRSKGWVCKK-NH2 (cysteine pairing not given here) [Compound 145] | – | 9
Isovaleryl-DTKFPCIIFGPRSKGWVCK-NH2 (cysteine pairing not given here) [Compound 147] | – | 20
Isovaleryl-DTHFPCIK(PEG8′)FGPRSKGWVCK-NH2 (cysteine pairing not given here) [Compound 149] | – | 9
DTHFPCIKFKPRSKGWVCK (N-terminal isovaleric acid; PEG8 on side chain of Lys 10; C-terminal amide) [Compound 150] | – | 7
Isovaleryl-DTHFPCIKFGPRSKGWVCK(PEG8′)-NH2 (cysteine pairing not given here) [Compound 153] | – | 18
Isovaleryl-DTHFPCIKFGPRSKGWTCK-NH2 (cysteine pairing not given here) [Compound 154] | – | 18
